{"source": "patent US20140157444A1", "key": {"GFP-ERα (human)": {"molecular_target": "GFP-ERα (human) (UniProt P03372)", "sequence (P03372 whole entry)": "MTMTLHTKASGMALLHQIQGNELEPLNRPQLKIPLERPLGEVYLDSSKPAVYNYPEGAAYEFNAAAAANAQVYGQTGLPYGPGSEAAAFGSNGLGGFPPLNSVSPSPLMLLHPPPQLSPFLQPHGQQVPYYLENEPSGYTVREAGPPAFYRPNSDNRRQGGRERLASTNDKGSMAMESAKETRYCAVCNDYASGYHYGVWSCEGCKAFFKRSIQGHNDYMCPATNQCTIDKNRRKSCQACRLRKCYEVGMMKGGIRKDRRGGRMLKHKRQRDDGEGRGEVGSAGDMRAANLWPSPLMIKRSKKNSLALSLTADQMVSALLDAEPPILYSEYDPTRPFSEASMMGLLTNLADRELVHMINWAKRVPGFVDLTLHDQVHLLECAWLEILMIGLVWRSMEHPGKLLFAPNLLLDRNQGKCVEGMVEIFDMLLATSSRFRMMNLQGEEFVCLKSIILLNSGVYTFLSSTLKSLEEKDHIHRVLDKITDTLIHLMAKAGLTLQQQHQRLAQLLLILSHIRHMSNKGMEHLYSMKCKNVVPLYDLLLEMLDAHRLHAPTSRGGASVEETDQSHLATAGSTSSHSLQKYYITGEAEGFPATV", "assay": "cell-based or functional assay"}, "[1]": {"molecular_target": "Myc-tagged estrogen receptor beta (UniProt O08537)", "sequence (O08537 whole entry)": "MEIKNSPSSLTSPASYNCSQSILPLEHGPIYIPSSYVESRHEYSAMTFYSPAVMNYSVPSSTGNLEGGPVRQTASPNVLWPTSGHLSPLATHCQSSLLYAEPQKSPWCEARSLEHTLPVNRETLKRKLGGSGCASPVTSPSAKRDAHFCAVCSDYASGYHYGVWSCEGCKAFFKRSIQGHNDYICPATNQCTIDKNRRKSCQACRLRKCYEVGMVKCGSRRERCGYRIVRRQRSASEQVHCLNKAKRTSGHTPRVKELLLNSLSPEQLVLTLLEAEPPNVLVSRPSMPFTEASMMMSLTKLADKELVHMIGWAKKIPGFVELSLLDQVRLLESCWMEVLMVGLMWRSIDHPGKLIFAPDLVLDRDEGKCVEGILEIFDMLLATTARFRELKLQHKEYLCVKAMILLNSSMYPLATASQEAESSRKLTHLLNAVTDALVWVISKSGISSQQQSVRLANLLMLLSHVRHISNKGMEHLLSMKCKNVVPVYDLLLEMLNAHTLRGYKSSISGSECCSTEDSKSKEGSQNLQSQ", "assay": "cell-based or functional assay"}}}
{"substance": "WDR13 (overexpressed in the luciferase assay, construct not stated) (from UniProt Q91V09 1-485)", "values": [{"measurement": "ERE-driven luciferase activity (ERE-TATA-LUC reporter in HEK 293 cells) (fold reduction)", "setting": "GFP-ERα (human)", "value": 2}, {"measurement": "ERE-driven luciferase activity (ERE-TATA-LUC reporter in HEK 293 cells) (fold reduction)", "setting": "[1]", "value": 2}]}
